Experiments:
[1] = target: T1, apolipoprotein C-I (mouse), P34928; experiment: ratio of MS intensity on L-form beads to that on D-form (C10-KR8d) beads
T1 chain: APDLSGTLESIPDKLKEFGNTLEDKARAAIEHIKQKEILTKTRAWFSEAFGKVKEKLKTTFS

[2] = target: T2, apolipoprotein A-I (mouse), Q00623; experiment: as above
T2 chain: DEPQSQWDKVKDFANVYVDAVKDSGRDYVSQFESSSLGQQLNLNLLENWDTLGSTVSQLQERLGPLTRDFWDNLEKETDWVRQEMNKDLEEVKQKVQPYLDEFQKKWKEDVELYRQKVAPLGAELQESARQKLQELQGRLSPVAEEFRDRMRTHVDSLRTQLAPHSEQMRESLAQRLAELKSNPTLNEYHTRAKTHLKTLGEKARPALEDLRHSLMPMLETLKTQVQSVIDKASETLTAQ

[3] = target: T3, apolipoprotein A-IV (mouse), P06728; experiment: as above
T3 chain: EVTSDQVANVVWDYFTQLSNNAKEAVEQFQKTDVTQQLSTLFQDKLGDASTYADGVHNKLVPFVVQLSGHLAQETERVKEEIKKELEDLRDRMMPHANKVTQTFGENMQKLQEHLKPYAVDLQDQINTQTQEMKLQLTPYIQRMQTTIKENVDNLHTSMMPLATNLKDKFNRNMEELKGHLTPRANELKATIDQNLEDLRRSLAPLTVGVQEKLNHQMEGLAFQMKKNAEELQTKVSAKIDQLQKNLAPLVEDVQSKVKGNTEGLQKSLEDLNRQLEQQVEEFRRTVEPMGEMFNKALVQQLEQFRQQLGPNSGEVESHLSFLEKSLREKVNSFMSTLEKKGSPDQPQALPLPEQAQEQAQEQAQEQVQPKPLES

[4] = target: serum albumin (mouse), P07724; experiment: as above
Sequence of serum albumin (mouse), P07724 (P07724 25-608 limits assumed): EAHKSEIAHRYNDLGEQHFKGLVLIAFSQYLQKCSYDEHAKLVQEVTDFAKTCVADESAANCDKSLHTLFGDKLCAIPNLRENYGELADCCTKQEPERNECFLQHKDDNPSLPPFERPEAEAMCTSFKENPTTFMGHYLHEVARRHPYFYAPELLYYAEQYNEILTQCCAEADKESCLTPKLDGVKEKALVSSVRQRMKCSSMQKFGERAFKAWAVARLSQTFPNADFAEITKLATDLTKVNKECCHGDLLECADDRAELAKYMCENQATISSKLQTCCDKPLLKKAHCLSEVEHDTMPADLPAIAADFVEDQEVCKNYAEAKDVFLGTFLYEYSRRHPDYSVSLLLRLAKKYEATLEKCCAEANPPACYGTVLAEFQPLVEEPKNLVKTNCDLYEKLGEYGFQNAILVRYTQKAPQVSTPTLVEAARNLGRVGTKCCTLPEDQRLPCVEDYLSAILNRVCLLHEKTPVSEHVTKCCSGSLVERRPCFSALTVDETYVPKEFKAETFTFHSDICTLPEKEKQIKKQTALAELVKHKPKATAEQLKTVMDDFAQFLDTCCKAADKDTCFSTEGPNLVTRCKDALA

[5] = target: T1, apolipoprotein C-I (mouse), P34928; experiment: peptide on Dynabeads, 5% mouse plasma, LC-MS/MS
[6] = target: T2, apolipoprotein A-I (mouse), Q00623; experiment: peptide on Dynabeads, 5% mouse plasma, LC-MS/MS
[7] = target: T3, apolipoprotein A-IV (mouse), P06728; experiment: peptide on Dynabeads, 5% mouse plasma, LC-MS/MS
[8] = target: serum albumin (mouse), P07724; experiment: peptide on Dynabeads, 5% mouse plasma, LC-MS/MS

CKRIWQRIK (modifications not checked) was tested, and the L/D Ratio [1] was 2.08, the L/D Ratio [2] was 3.54 and the L/D Ratio [3] was 2.89. It also gave a L/D Ratio [4] of 2.28, an intensity (mass spectrometry) [5] of 4.35e+08 and an intensity (mass spectrometry) [6] of 4.29e+09. For the same binder, the intensity (mass spectrometry) [7] was 3.21e+08 and the intensity (mass spectrometry) [8] was 3.72e+10.
